Laboratory results as given in article PMC8080530, “Glucocorticoid receptor Thr524 phosphorylation by MINK1 induces interactions with 14-3-3 protein regulators” (The Journal of Biological Chemistry, 2021).
Non-standard residues stand in square brackets, D forms with d. Residues, ends and D or L forms follow the SMILES beside them. pT = C[C@@H](OP(=O)(O)O)[C@H](N)C(=O)O; pS = N[C@@H](COP(=O)(O)O)C(=O)O

Tests used:
[1] = molecular target: human 14-3-3ζ, full length, 6His-Linker-h14-3-3 (human) (UniProt P63104); assay: SPR; Biacore 3000; 6His-tagged 14-3-3 immobilised on an NTA chip (2000 RU 14-3-3ζ, 4000 RU 14-3-3σ); peptides injected in HBS P+ buffer with 1 or 3% DMSO, 20 μl/min; Hill fit; triplicates
[2] = molecular target: GR_pS134, FITC-labelled 13-mer phosphopeptide (human) (UniProt P04150); assay: fluorescence polarisation; FITC-labelled peptide at 60 nM (monophosphorylated) or 10 nM (doubly phosphorylated) titrated with 14-3-3ζ or 14-3-3σ in dilution series from 300 μM or 150 μM; 30 min at RT; 384-well plate; Hill fit; triplicates
[3] = molecular target: GR_pS134-pT524, FITC-labelled 31-mer doubly phosphorylated peptide (human) (UniProt P04150); assay: as above
[4] = molecular target: GR_pS524-pS617, FITC-labelled diphosphoserine analogue of GR_pT524-pS617 (human) (UniProt P04150); assay: as above
[5] = molecular target: GR_pT524-pS617 with K518 replaced by alanine (alanine scan) (human) (UniProt P04150); assay: as above
[6] = molecular target: GR_pT524-pS617 with P526 replaced by alanine (alanine scan) (human) (UniProt P04150); assay: as above
[7] = molecular target: GR_pT524-pS617 with R614 replaced by alanine (alanine scan) (human) (UniProt P04150); assay: as above
[8] = molecular target: GR_pT524-pS617 with pS617 replaced by alanine (alanine scan) (human) (UniProt P04150); assay: as above
[9] = molecular target: GR_pT524-pS617 with pT524 replaced by alanine (alanine scan) (human) (UniProt P04150); assay: as above
[10] = molecular target: GR_pT524-pS617, FITC-labelled 31-mer doubly phosphorylated peptide (human) (UniProt P04150); assay: as above
[11] = molecular target: GR_pT524-pT562, FITC-labelled 51-mer doubly phosphorylated peptide with the native sequence as a linker (human) (UniProt P04150); assay: as above
Sequence of GR_pT524-pT562, FITC-labelled 51-mer doubly phosphorylated peptide with the native sequence as a linker (human) (P04150 518-568): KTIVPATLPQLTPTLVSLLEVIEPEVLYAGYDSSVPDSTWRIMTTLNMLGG

[12] = system: GR–14-3-3 interaction in HEK293 and U2OS cells; assay: Co-IP and far-Western blotting overlay of GR with 14-3-3 after cell stimulation; type: cell-based; conditions: HEK293 and U2OS cells transfected with WT GR, overnight starvation; forskolin 20 µM for 30 min, calyculin A 50 nM for 10 min
Procedure: The interaction between the full-length GR and 14-3-3 was investigated in a cellular system to validate the relevance of the peptide studies.
The HEK293 and U2OS cell lines (American Type Culture Collection) were cultured in Dulbecco's modified Eagle's medium, supplemented with 10% fetal bovine serum and 1% penicillin-streptomycin (10,000 U/ml) at 37 °C in a 5% CO2 environment. For the Co-IP assay, 3 × 10^6 cells were seeded in a 15-cm cell culture dish. At 60 to 70% confluence, the HEK293 cells were transiently transfected with a mixture of 6-μg GFP-MINK1 or GFP-GR DNA and 24-μl lipofectamine 2000 in 2-ml Opti-MEM for 24 h. […]
(§1) Cells were collected and lysed in radioimmunoprecipitation assay buffer containing 50-mM Tris-HCl, pH 8, 150-mM NaCl, 1-mM EDTA, 0.1% SDS, 1% Na deoxycholate, and 1% NP-40 supplemented with a protease inhibitor cocktail. After lysis, the concentration of protein was quantified by the Bradford test. […]
(§2) Eluted proteins were resolved on a NuPAGE 4 to 12% Bis-Tris Protein Gels, 1.0 mm. […] After washing with TBST, the blots were detected using an Odyssey CLx Imaging system (LI-COR). […]
Samples containing proteins from the Co-IP assay or GR LBD in vitro phosphorylated were loaded on a NuPAGE 4 to 12% Bis-Tris Protein Gels, 1.0 mm, and separated. […] After washing with TBST, the blots were detected using an Odyssey CLx Imaging system (LI-COR). […]

[13] = system: MINK1–14-3-3 interaction in HEK293 cells; assay: Co-IP and far-Western blotting overlay of MINK1 with 14-3-3 after cell stimulation; type: cell-based; conditions: HEK293 cells transfected with GFP-MINK1; forskolin 20 µM for 30 min, calyculin A 50 nM for 10 min
Procedure: The HEK293 and U2OS cell lines (American Type Culture Collection) were cultured in Dulbecco's modified Eagle's medium, supplemented with 10% fetal bovine serum and 1% penicillin-streptomycin (10,000 U/ml) at 37 °C in a 5% CO2 environment. For the Co-IP assay, 3 × 10^6 cells were seeded in a 15-cm cell culture dish. At 60 to 70% confluence, the HEK293 cells were transiently transfected with a mixture of 6-μg GFP-MINK1 or GFP-GR DNA and 24-μl lipofectamine 2000 in 2-ml Opti-MEM for 24 h. At 60 to 70% confluence, the U2OS cells were transiently transfected with a mixture of 8-μg GFP-MINK1 or GFP-GR and/or FLAG-MINK1 DNA and 32-μl X-tremeGENE 9 DNA in 2 ml Opti-MEM for 24 h. Stimulation with forskolin, H89, IGF-1, and PI303 was preceded by a cell starvation step where the cells were incubated with DMEM without supplements overnight. […]
as §1, §2

14-3-3ζ = molecular target: T1, 14-3-3ζ (Homo sapiens, UniProt P63104); assay: FP assay with GR phosphorylated peptides and 14-3-3ζ; type: binding
T1 construct: Full-length expression and purification of 14-3-3; made in house; host or cells: E. coli BL21 (DE3)STAR
T1 sequence (P63104 1-245): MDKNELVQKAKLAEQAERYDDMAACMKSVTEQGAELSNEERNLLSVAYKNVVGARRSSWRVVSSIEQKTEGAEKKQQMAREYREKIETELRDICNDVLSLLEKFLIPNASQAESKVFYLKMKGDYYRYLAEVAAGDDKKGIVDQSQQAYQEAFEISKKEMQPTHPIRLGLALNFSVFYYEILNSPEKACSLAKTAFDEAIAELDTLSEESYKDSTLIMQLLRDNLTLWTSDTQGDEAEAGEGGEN
In short: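 Fluorescence polarization (ex 485/em 520 nm) was read in triplicate after 30-min RT incubation. Binding data were fitted to a standard Hill equation and expressed in mP units. The dynamic range (ΔmP) is the difference between bound and free peptide signals.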

14-3-3σ = molecular target: T2, 14-3-3σ (Homo sapiens, UniProt P31947); assay: FP assay with GR phosphorylated peptides and 14-3-3σ; type: binding; conditions: FITC-labeled peptide titrated with 14-3-3σ, 30 min RT, triplicates
T2 construct: Full-length expression and purification of 14-3-3; made in house; host or cells: E. coli BL21 (DE3)STAR
T2 sequence (P31947 1-248): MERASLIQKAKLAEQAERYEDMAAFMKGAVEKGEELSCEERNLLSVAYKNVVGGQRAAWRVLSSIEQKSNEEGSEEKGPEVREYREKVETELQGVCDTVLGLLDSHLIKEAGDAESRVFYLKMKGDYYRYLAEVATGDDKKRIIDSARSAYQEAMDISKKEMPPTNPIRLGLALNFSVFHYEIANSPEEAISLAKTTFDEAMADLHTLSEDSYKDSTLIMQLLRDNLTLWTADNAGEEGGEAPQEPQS
Procedure: After 30-min incubation at RT, the plates were read on a plate reader PHERAstar (BMG LABTECH GmbH) for FP signal using […] and standard excitation (485 nm) and emission (520 nm). Measurements were performed as triplicates. Binding data were fit to a standard Hill equation using the software Genedata Screener. The figures were made using the software GraphPad Prism 8. FP data were expressed as millipolarization (mP) units, and the dynamic range (ΔmP) was the difference of the signals from the bound peptide and free peptide. Errors are the standard error of the fit.

Sequence of GR_pT524-pT562, 51-mer doubly phosphorylated peptide used for SPR (P04150 518-568): as the sequence (P04150 518-568) above

In the case of “GR_pT524-pT562, 51-mer doubly phosphorylated peptide used for SPR (from UniProt P04150 518-568)”, the Kd [1] is reported as 15000 nM.
For “human 14-3-3ζ, full length, 6His-Linker-h14-3-3 (from UniProt P63104 1-245) (natural protein)”, the Kd [2] was 90000 nM, the Kd [3] was 550 nM and the Kd [4] was 140 nM. It also gave a Kd [5] of 110 nM, a Kd [6] of 1200 nM and a Kd [7] of 220 nM. The Kd [8] was 1300 nM, the Kd [9] was 120000 nM and the Kd [10] was 18 nM. It also gave a Kd [11] of 23000 nM.
With COC[C@@H]([C@H](O)[C@H](O)C(=O)NCC[C@H](C)c1nc(/C=C/C[C@@H]2O[C@]3(C[C@@H](O)[C@@H]2C)O[C@H]([C@H](C[C@H](O)[C@H](C)[C@H](O)[C@H](C)/C=C(C)/C(C)=C/C=C/C(C)=C\C#N)OC)[C@H](OP(=O)(O)O)C3(C)C)co1)N(C)C [calyculin A] the “GR interaction with 14-3-3 proteins upon stimulation” value [12] was “GR interacted with 14-3-3 proteins” and the “MINK1 interaction with 14-3-3 upon stimulation” value [13] was “MINK1 also interacts with 14-3-3”.
With C=C[C@@]1(C)CC(=O)[C@]2(O)[C@@]3(C)[C@@H](O)CCC(C)(C)[C@@H]3[C@H](O)[C@H](OC(C)=O)[C@@]2(C)O1 [forskolin] the “GR interaction with 14-3-3 proteins upon stimulation” value [12] was “GR interacted with 14-3-3 proteins” and the “MINK1 interaction with 14-3-3 upon stimulation” value [13] was “MINK1 also interacts with 14-3-3”.
CC[C@H](C)[C@H](NC(=O)[C@@H](NC(=O)[C@H](CCCCN)NC(C)=O)[C@@H](C)O)C(=O)N[C@H](C(=O)N1CCC[C@H]1C(=O)N[C@@H](C)C(=O)N[C@H](C(=O)N[C@@H](CC(C)C)C(=O)N1CCC[C@H]1C(=O)N[C@@H](CCC(N)=O)C(=O)N[C@@H](CC(C)C)C(=O)N[C@H](C(=O)N1CCC[C@H]1C(=O)NCC(=O)NCC(=O)NCC(=O)NCC(=O)NCC(=O)N[C@@H](CCCNC(=N)N)C(=O)N[C@@H](CO)C(=O)N[C@@H](Cc1ccc(O)cc1)C(=O)N[C@@H](CCCNC(=N)N)C(=O)N[C@@H](CCC(N)=O)C(=O)N[C@@H](CO)C(=O)N[C@@H](COP(=O)(O)O)C(=O)N[C@@H](C)C(=O)N[C@@H](CC(N)=O)C(=O)N[C@@H](CC(C)C)C(=O)N[C@@H](CC(C)C)C(=O)N[C@@H](CS)C(=O)N[C@@H](Cc1ccccc1)C(=O)O)[C@@H](C)O)[C@@H](C)OP(=O)(O)O)C(C)C [GR_pT524-pS617] (Ac-KTIVPA[pT]LPQLTPGGGGGRSYRQS[pS]ANLLCF-OH) was tested, and the Kd (14-3-3ζ; FP, doubly phosphorylated 31-mer peptides, triplicates, read-out: Kd with 14-3-3ζ (values in nM)) was 18 nM, the “fold improvement of binding affinity with 14-3-3ζ compared with the individual monomers” value (14-3-3ζ; avidity effect of dimeric peptide) was 1000 fold and the Kd (14-3-3σ) was 53 ± 26 nM.
